Experimental findings from the Human Domainome abundance scans (Beltran et al. 2025) are described below.

The chains are these.
B1: CD2-associated protein, residues 1 to 59; numbered along this chain, Q9Y5K6 (parent)
chain: MVDYIVEYDYDAVHDDELTIRVGEIIRNVKKLQEEGWLEGELNGRRGMFPDNFVKEIKR

± gives the uncertainty stated by the source.

This series covers variants of B1. Description: abundance fitness (aPCA) (normalised: wild type 0, dead -1); higher = more abundant; growth selection in yeast, the domain comes from the species named. The conditions noted are these: Homo sapiens.
For MVDYIVEYDYDAVHDDELTIRVGEIIRNVKKLQEEGWLSGELNGRRGMFPDNFVKEIKR [E39S], the abundance fitness is -0.057 ± 0.087. Under MVDYIVEYDYDAVHDDELTIRVGEIIRNVKKLQEEGWLLGELNGRRGMFPDNFVKEIKR [E39L] stands -0.427 ± 0.1.

Take MVDYIVEYDYDAVHDDELTIRVGEIIRNVKKLQEEGWLYGELNGRRGMFPDNFVKEIKR [E39Y]: the abundance fitness was -0.164 ± 0.15. As to MVDYIVEYDYDAVHDDELTIRVGEIIRNVKKLQEEGWLQGELNGRRGMFPDNFVKEIKR [E39Q], the abundance fitness was -0.248 ± 0.2. The result for MVDYIVEYDYDAVHDDELTIRVGEIIRNVKKLQEEGWLTGELNGRRGMFPDNFVKEIKR [E39T] reads -0.26 ± 0.1; that for MVDYIVEYDYDAVHDDELTIRVGEIIRNVKKLQEEGWLNGELNGRRGMFPDNFVKEIKR [E39N], -0.446 ± 0.21. The result for MVDYIVEYDYDAVHDDELTIRVGEIIRNVKKLQEEGWLMGELNGRRGMFPDNFVKEIKR [E39M] reads -0.256 ± 0.13; that for MVDYIVEYDYDAVHDDELTIRVGEIIRNVKKLQEEGWLRGELNGRRGMFPDNFVKEIKR [E39R], -0.486 ± 0.093. Under MVDYIVEYDYDAVHDDELTIRVGEIIRNVKKLQEEGWLVGELNGRRGMFPDNFVKEIKR [E39V] stands -0.201 ± 0.11; under MVDYIVEYDYDAVHDDELTIRVGEIIRNVKKLQEEGWLEGEQNGRRGMFPDNFVKEIKR [L42Q], -0.328 ± 0.19. Consider MVDYIVEYDYDAVHDDELTIRVGEIIRNVKKLQEEGWLEGEMNGRRGMFPDNFVKEIKR [L42M], for which the abundance fitness was -0.678 ± 0.21. MVDYIVEYDYDAVHDDELTIRVGEIIRNVKKLQEEGWLEGEANGRRGMFPDNFVKEIKR [L42A]: the abundance fitness was -0.327 ± 0.15. With MVDYIVEYDYDAVHDDELTIRVGEIIRNVKKLQEEGWLEGESNGRRGMFPDNFVKEIKR [L42S], the abundance fitness is -0.267 ± 0.1. Under MVDYIVEYDYDAVHDDELTIRVGEIIRNVKKLQEEGWLEGEINGRRGMFPDNFVKEIKR [L42I] stands 0.043 ± 0.22. With MVDYIVEYDYDAVHDDELTIRVGEIIRNVKKLQEEGWLEGEYNGRRGMFPDNFVKEIKR [L42Y], the abundance fitness was -0.839 ± 0.43. The result for MVDYIVEYDYDAVHDDELTIRVGEIIRNVKKLQEEGWLEGETNGRRGMFPDNFVKEIKR [L42T] reads -0.515 ± 0.18; that for MVDYIVEYDYDAVHDDELTIRVGEIIRNVKKLQEEGWLEGEVNGRRGMFPDNFVKEIKR [L42V], -0.146 ± 0.14.

Turning to MVDYIVEYDYDAVHDDELTIRVGEIIRNVKKLQEEGWLEGEFNGRRGMFPDNFVKEIKR [L42F], the abundance fitness is -0.212 ± 0.12. As to MVDYIVEYDYDAVHDDELTIRVGEIIRNVKKLQEEGWLEGEWNGRRGMFPDNFVKEIKR [L42W], the abundance fitness was -0.399 ± 0.16.

Consider MVDYIVEYDYDAVHDDELTIRVGEIIRNVKKLQEEGWLEGECNGRRGMFPDNFVKEIKR [L42C], for which the abundance fitness is -0.012 ± 0.13. On to MVDYIVEYDYDAVHDDELTIRVGEIIRNVKKLQEEGWLEGEHNGRRGMFPDNFVKEIKR [L42H], for which the abundance fitness is -0.297 ± 0.15. Regarding MVDYIVEYDYDAVHDDELTIRVGEIIRNVKKLQEEGWLEGELCGRRGMFPDNFVKEIKR [N43C], the abundance fitness is -0.383 ± 0.11. For the variant MVDYIVEYDYDAVHDDELTIRVGEIIRNVKKLQEEGWLEGELEGRRGMFPDNFVKEIKR [N43E], the abundance fitness is -0.192 ± 0.45. As to MVDYIVEYDYDAVHDDELTIRVGEIIRNVKKLQEEGWLEGELFGRRGMFPDNFVKEIKR [N43F], the abundance fitness was -0.409 ± 0.15. Under MVDYIVEYDYDAVHDDELTIRVGEIIRNVKKLQEEGWLEGELGGRRGMFPDNFVKEIKR [N43G] stands -0.057 ± 0.15. On to MVDYIVEYDYDAVHDDELTIRVGEIIRNVKKLQEEGWLEAELNGRRGMFPDNFVKEIKR [G40A], for which the abundance fitness is -0.999 ± 0.4. The result for MVDYIVEYDYDAVHDDELTIRVGEIIRNVKKLQEEGWLEMELNGRRGMFPDNFVKEIKR [G40M] reads -0.661 ± 0.31.

Consider MVDYIVEYDYDAVHDDELTIRVGEIIRNVKKLQEEGWLEKELNGRRGMFPDNFVKEIKR [G40K], for which the abundance fitness is -0.541 ± 0.18. For MVDYIVEYDYDAVHDDELTIRVGEIIRNVKKLQEEGWLERELNGRRGMFPDNFVKEIKR [G40R], the abundance fitness was -0.858 ± 0.23. Under MVDYIVEYDYDAVHDDELTIRVGEIIRNVKKLQEEGWLEEELNGRRGMFPDNFVKEIKR [G40E] stands -0.926 ± 0.41; under MVDYIVEYDYDAVHDDELTIRVGEIIRNVKKLQEEGWLELELNGRRGMFPDNFVKEIKR [G40L], -0.945 ± 0.24. With MVDYIVEYDYDAVHDDELTIRVGEIIRNVKKLQEEGWLESELNGRRGMFPDNFVKEIKR [G40S], the abundance fitness was -0.463 ± 0.12.

With MVDYIVEYDYDAVHDDELTIRVGEIIRNVKKLQEEGWLEVELNGRRGMFPDNFVKEIKR [G40V], the abundance fitness is -0.904 ± 0.43. As for MVDYIVEYDYDAVHDDELTIRVGEIIRNVKKLQEEGWLEDELNGRRGMFPDNFVKEIKR [G40D], the abundance fitness is -0.825 ± 0.36. Under MVDYIVEYDYDAVHDDELTIRVGEIIRNVKKLQEEGWLEGNLNGRRGMFPDNFVKEIKR [E41N] stands -0.361 ± 0.49.

Take MVDYIVEYDYDAVHDDELTIRVGEIIRNVKKLQEEGWLEGVLNGRRGMFPDNFVKEIKR [E41V]: the abundance fitness is -0.535 ± 0.22. Under MVDYIVEYDYDAVHDDELTIRVGEIIRNVKKLQEEGWLEGALNGRRGMFPDNFVKEIKR [E41A] stands -0.388 ± 0.33; under MVDYIVEYDYDAVHDDELTIRVGEIIRNVKKLQEEGWLEGYLNGRRGMFPDNFVKEIKR [E41Y], -0.532 ± 0.28; under MVDYIVEYDYDAVHDDELTIRVGEIIRNVKKLQEEGWLEGRLNGRRGMFPDNFVKEIKR [E41R], -0.306 ± 0.09. Under MVDYIVEYDYDAVHDDELTIRVGEIIRNVKKLQEEGWLEGDLNGRRGMFPDNFVKEIKR [E41D] stands -0.349 ± 0.27; under MVDYIVEYDYDAVHDDELTIRVGEIIRNVKKLQEEGWLEGQLNGRRGMFPDNFVKEIKR [E41Q], -0.352 ± 0.18; under MVDYIVEYDYDAVHDDELTIRVGEIIRNVKKLQEEGWLEGILNGRRGMFPDNFVKEIKR [E41I], -0.191 ± 0.25. For the variant MVDYIVEYDYDAVHDDELTIRVGEIIRNVKKLQEEGWLEGSLNGRRGMFPDNFVKEIKR [E41S], the abundance fitness is -0.013 ± 0.11. The result for MVDYIVEYDYDAVHDDELTIRVGEIIRNVKKLQEEGWLEGWLNGRRGMFPDNFVKEIKR [E41W] reads -0.31 ± 0.14; that for MVDYIVEYDYDAVHDDELTIRVGEIIRNVKKLQEEGWLEGMLNGRRGMFPDNFVKEIKR [E41M], -0.312 ± 0.2.
